Results reported in patent US20130142788A1 (published 2013).
* marks the point of attachment. Biotin = O=C1N[C@H]2[C@H](CS[C@H]2CCCCC(=O)*)N1

Key:
[1] = target: T1, recombinant mature dimeric myostatin (human and mouse (mature sequences 100% …, UniProt O08689 268-376)); assay: cell-based or functional assay
T1 sequence: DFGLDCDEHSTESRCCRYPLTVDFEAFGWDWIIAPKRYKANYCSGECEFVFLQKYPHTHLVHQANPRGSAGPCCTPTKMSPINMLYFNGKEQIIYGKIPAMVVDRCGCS

[2] = target: T1, recombinant mature dimeric myostatin; assay: ELISA, myostatin coated at 10 ng/well
Experimental: 10B3 and 10B3 chimera (10B3C) bound myostatin (R&D Systems, 788-G8-010/CF) in a sandwich ELISA. Plates were coated with myostatin at 10 ng/well and blocked with Block solution (PBS, 0.1% TWEEN and 1% BSA). Following washing (PBS, 0.1% TWEEN), antibody was incubated at 37° C. for 2 hours over a dilution series and plates washed again prior to incubation at 37° C. for 1 hour with anti-mouse HRP or anti-human HRP (Dako, P0161 & Sigma, A-8400, respectively). Plates were again washed and OPD substrate (Sigma, P9187) added until colourometric reaction occurred and the reaction stopped by the addition of H₂SO₄.

[3] = target: T1, recombinant mature dimeric myostatin; assay: BIAcore T100 SPR, antibody captured on anti-mouse IgG, myostatin analyte, all curves 1:1 model
Experimental: The affinity of 10B3 mouse parental and 10B3C for recombinant myostatin was assessed by BIAcore™ (surface plasmon resonance) analysis. Analysis was carried out by the use of a capture surface: anti-mouse IgG was coupled to a C1 chip by primary amine coupling for 10B3 mouse parental; and a protein A surface was created on a C1 chip by primary amine coupling for 10B3 chimera.
After capture, recombinant myostatin was passed over the surface at 64 nM, 16 nM, 4 nM, 1 nM, 0.25 nM and 0.0625 nM, with a buffer injection (i.e. 0 nM) used for double referencing. There was a regeneration step between each analyte injection, after which the new antibody capture event occurred before the next injection of myostatin. The data was analysed using both the 1:1 model and the Bivalent model inherent to the T100 machines analysis software (see Table 6). Both capture surfaces could be regenerated using 100 mM phosphoric acid, the work was carried out using HBS-EP as the running buffer and using 25° C. as the analysis temperature.

[4] = target: T1, recombinant mature dimeric myostatin; assay: cell-based or functional assay; remark: listed apart in the source
[5] = target: T2, myostatin artificial peptide No 3 (SGSGDCDEHSTESRCCRY) (cysteine pairing not given here); assay: SRU BIND biosensor, peptides captured on streptavidin plate
T2 construct: also called Peptide 3
T2 peptide: Biotin-SGSGDCDEHSTESRCCRY-NH2
Experimental: (§1) Work was carried out on an SRU BIND reader (SRU Biosystems). A streptavidin biosensor plate was washed, a baseline reading taken, and biotinylated peptides captured onto the streptavidin coated biosensor plate. The plate was washed again, and a new baseline reading taken, antibody was then added and binding monitored.

[6] = target: T3, myostatin artificial peptide No 39 (SGSGTKMSPINMLYFNGK) (HELM PEPTIDE1{[O=C1N[C@H]2[C@H](CS[C@H]2CCCCC(=O)[*:2])N1].S.G.S.G.T.K.M.S.P.I.N.M.L.Y.F.N.G.K.[am]}$$$$V2.0; SMILES …); assay: as above
T3 construct: also called Peptide 39
T3 peptide: SGSGTKMSPINMLYFNGK
Experimental: as §1

[7] = target: T4, myostatin artificial peptide No 9 (SGSGRYPLTVDFEAFGWD) (HELM PEPTIDE1{[O=C1N[C@H]2[C@H](CS[C@H]2CCCCC(=O)[*:2])N1].S.G.S.G.R.Y.P.L.T.V.D.F.E.A.F.G.W.D.[am]}$$$$V2.0; SMILES …); assay: as above
T4 construct: also called Peptide 9
T4 peptide: SGSGRYPLTVDFEAFGWD
Experimental: as §1

[8] = target: T5, myostatin artificial peptide No 1 (…) (N-terminus H-; C-terminus -NH2); assay: as above
T5 construct: also called Peptide 1
Experimental: as §1

[9] = target: T6, myostatin artificial peptide No 33 (SGSGNPRGSAGPCCTPTK) (cysteine pairing not given here); assay: as above
T6 construct: also called Peptide 33
T6 peptide: Biotin-SGSGNPRGSAGPCCTPTK-NH2
Experimental: as §1

[10] = target: T7, myostatin artificial peptide No 41 (SGSGPINMLYFNGKEQII) (HELM PEPTIDE1{[O=C1N[C@H]2[C@H](CS[C@H]2CCCCC(=O)[*:2])N1].S.G.S.G.P.I.N.M.L.Y.F.N.G.K.E.Q.I.I.[am]}$$$$V2.0; SMILES …); assay: as above
T7 construct: also called Peptide 41
T7 peptide: SGSGPINMLYFNGKEQII
Experimental: as §1

[11] = target: T8, myostatin artificial peptide No 21 (SGSGNYCSGECEFVFLQK) (cysteine pairing not given here); assay: as above
T8 construct: also called Peptide 21
T8 peptide: Biotin-SGSGNYCSGECEFVFLQK-NH2
Experimental: as §1

[12] = target: T9, myostatin artificial peptide No 49 (SGSGGKIPAMVVDRCGCS) (cysteine pairing not given here); assay: as above
T9 construct: also called Peptide 49
T9 peptide: Biotin-SGSGGKIPAMVVDRCGCS-OH
Experimental: as §1

[13] = target: T10, myostatin artificial peptide No 43 (SGSGLYFNGKEQIIYGKI) (HELM PEPTIDE1{[O=C1N[C@H]2[C@H](CS[C@H]2CCCCC(=O)[*:2])N1].S.G.S.G.L.Y.F.N.G.K.E.Q.I.I.Y.G.K.I.[am]}$$$$V2.0; SMILES …); assay: as above
T10 construct: also called Peptide 43
T10 peptide: SGSGLYFNGKEQIIYGKI
Experimental: as §1

IC50, myostatin responsive reporter gene neutralisation assay (A204) [1]: 10 nM
EC50 [2]: 0.069 µg/mL
Kd [3]: 1 nM
IC50, myostatin responsive reporter gene assay (A204 cells, luciferase) [4]: 10 nM
binding result [5]: no binding
binding result [6]: no binding
binding result [7]: no binding
binding result [8]: no binding
binding result [9]: no binding
binding result [10]: no binding
binding result [11]: no binding
binding result [12]: no binding
binding result [13]: no binding
B1: mouse monoclonal antibody 10B3 (antibody, mouse IgG2a, V domains shown)
VH: EVQLQQSGPELVKPGASVKISCKASGYSFTGYFMHWVKQSHGNILDWIGNIYPYNGVSNYNQRFKAKATLTVDKSSSTAYMELRSLTSEDSAVYYCARRYYYGTGPADWYFDVWGTGTTVTVSS
VL: DIKMTQSPSSMYASLRERVTITCKASQDINSYLSWFQQKPGKSPKTLIYRANRLVDGVPSRFSGSGSGQDYSLTISSLEYEDMGIYYCLQCDEFPLTFGAGTKLELK
notes: Murine IgG2a/k; also called 10B3 mouse parental; parental 10B3
